Source: article PMC4939424, “Phosphatidylinositol 3-Kinase-Associated Protein (PI3KAP)/XB130 Crosslinks Actin Filaments through Its Actin Binding and Multimerization Properties In Vitro and Enhances Endocytosis in HEK293 Cells” (Frontiers in Endocrinology, 2016)

Target: the molecule itself
Assay: native gel or EMSA; blue native (BN)-PAGE of immuno-purified FLAG-PI3KAP/XB130 on NativePAGE Novex Bis-Tris gels, immunoblot with anti-FLAG antibody

B1: FLAG-tagged recombinant full-length PI3KAP/XB130 (natural protein, mouse, UniProt Q5DTU0-2 1-843, looked up)
chain: MERYKAQGCCCLVVQRRILQVSASLEQLLTELDDFLKVLDQENLSSAAVLKKSGLSELLRLYTKSSSSDEEYIYMNKVSVNGEQNSASPDKVPEEQGPLTNGEPSQHSSAPQKSLPDLPPPKMIPERKQPTVPKIESPEGYYEEAEPFDRSINEDGEAVSSSYESYDEDENSKGKAAPYQWPSPEASIELMRDARICAFLWRKKWLGQWAKQLCVIRDTRLLCYKSSKDHSPQLDVNLRGSSVVHKEKQVRKKGHKLKITPMNADVIVLGLQSKDQAEQWLRVIQEVSGLPSEGASEGNQYTPDAQRLNCQKPDIAEKYLSAAEYGITINGHPEIPETKDVKKKCSAGLKLSNLMNLGRKKSTSLEPPERSLETSSYLNVLVNSQWKSRWCFVRDSHLHFYQDRNRSKVAQQPLSLVGCDVLPDPSPDHLYSFRILHNGEELAKLEAKSSEEMGHWLGLLLSESGSKTDPEELTYDYVDAERVSCIVSAAKTSLLLMQRKFSEPNTYIDGLPSRDCQDDLYDDVEVSELIAVVEPAEEAAPAVDANSGSEPDRVYLDLTPVKSFLHSSSEAQAQASLPAVPHQDDVAETLTVDPKPGTTPEEPHTESPGDPEVQQRQPEVQESSEPIEPTPRITMVKLQAEQQRISFPANCPDTMASAPIAASPPVKEKLRVTSAEIKLGKNRTEAEVKRYTEEKERLERSKEEIRGHLAQLRREKRELKETLLRCTDKGVLAKLEQTLKKIDEECRMEESRRVDLELSIMEVKDNLKKAEAGPVTLGTTVDTTHLDNMSPRPQPKAATPNPPPDSTPVNSASVLKNRPLSVMVTGKGTVLQKAKEWEKKGAS
notes: also called FLAG-PI3KAP/XB130; FLAG-PI3KAPXB130; source: HEK293T, transfected (pShuttle2): purified with anti-FLAG M2 agarose and eluted with FLAG peptide; also in lysate (co-immunoprecipitation)
**Q.** Does B1 bind?
**A.** binds
